Experimental data taken from publication PMC10793455 (bioRxiv, 2023).

What was measured:
[1] = target: T1, F-actin (rabbit skeletal muscle actin filaments) (rabbit, UniProt P68135 1-377, methylated His73 (His73me)); test: fluorescence polarisation
[2] = target: T1, F-actin (rabbit skeletal muscle actin …); test: other fluorescence titration
[3] = target: T1, F-actin (rabbit skeletal muscle actin …); test: fluorescence polarisation; remark: listed apart in the source
[4] = target: T1, F-actin (rabbit skeletal muscle actin …); test: cryo-EM structure
[5] = target: Alexa-488 labeled F-actin (rabbit skeletal muscle actin) (rabbit, UniProt P68135 1-377); test: single-molecule TIRF microscopy
[6] = target: T1, F-actin (rabbit skeletal muscle actin …); test: fluorescence polarisation; remark: listed apart in the source

B1: FM-SipAC-ΔArm2 (SipA residues 425–658 labeled with fluorescein maleimide) (domain or fragment)
chain: TGETTSFDEVDGVTSKSIIGKPVQATVHGVDDNKQQSQTAEIVNVKPLASQLAGVENVKTDTLQSDTTVITGNKAGTTDNDNSQTDKTGPFSGLKFKQNSFLSTVPSVTNMHSMHFDARETFLGVIRKALEPDTSTPFPVRRAFDGLRAEILPNDTIKSAALKAQCSDIDKHPELKAKMETLKEVITHHPQKEKLAEIALQFAREAGLTRLKGETDYVLSNVLDGLIGDGSWRA
modifications: fluorescein maleimide (FM) label
Kd [1]: 120 nM

B2: SipAC-Core (SipA residues 512–658), unlabeled (domain or fragment)
chain: TGPFSGLKFKQNSFLSTVPSVTNMHSMHFDARETFLGVIRKALEPDTSTPFPVRRAFDGLRAEILPNDTIKSAALKAQCSDIDKHPELKAKMETLKEVITHHPQKEKLAEIALQFAREAGLTRLKGETDYVLSNVLDGLIGDGSWRA
Kd [2]: 81 nM

B3: SipAC (SipA residues 425–685), unlabeled (domain or fragment)
chain: TGETTSFDEVDGVTSKSIIGKPVQATVHGVDDNKQQSQTAEIVNVKPLASQLAGVENVKTDTLQSDTTVITGNKAGTTDNDNSQTDKTGPFSGLKFKQNSFLSTVPSVTNMHSMHFDARETFLGVIRKALEPDTSTPFPVRRAFDGLRAEILPNDTIKSAALKAQCSDIDKHPELKAKMETLKEVITHHPQKEKLAEIALQFAREAGLTRLKGETDYVLSNVLDGLIGDGSWRAGPAYESYLNKPGVDRVITTVDGLHMQR
Kd [3]: 5 nM | stoichiometry N [4]: 0.5 SipAC per actin subunit | Kd [2]: 0.18 nM

B4: Alexa-647-SipAC (SipA residues 425–685 labeled with Alexa-647) (domain or fragment)
chain: TGETTSFDEVDGVTSKSIIGKPVQATVHGVDDNKQQSQTAEIVNVKPLASQLAGVENVKTDTLQSDTTVITGNKAGTTDNDNSQTDKTGPFSGLKFKQNSFLSTVPSVTNMHSMHFDARETFLGVIRKALEPDTSTPFPVRRAFDGLRAEILPNDTIKSAALKAQCSDIDKHPELKAKMETLKEVITHHPQKEKLAEIALQFAREAGLTRLKGETDYVLSNVLDGLIGDGSWRAGPAYESYLNKPGVDRVITTVDGLHMQR
modifications: Alexa-647 label
Kd [5]: 0.1 nM

B5: FM-SipAC (SipA residues 425–685 labeled with fluorescein maleimide) (domain or fragment)
chain: TGETTSFDEVDGVTSKSIIGKPVQATVHGVDDNKQQSQTAEIVNVKPLASQLAGVENVKTDTLQSDTTVITGNKAGTTDNDNSQTDKTGPFSGLKFKQNSFLSTVPSVTNMHSMHFDARETFLGVIRKALEPDTSTPFPVRRAFDGLRAEILPNDTIKSAALKAQCSDIDKHPELKAKMETLKEVITHHPQKEKLAEIALQFAREAGLTRLKGETDYVLSNVLDGLIGDGSWRAGPAYESYLNKPGVDRVITTVDGLHMQR
modifications: fluorescein maleimide (FM) label
Kd [6]: ~0.9 nM
